B1: CBS-pair domain of a C. elegans CNNM protein (the one of two expressed that bound with 13 μM affinity) (domain or fragment)
chain: FKMVLGALELYDKTVAHAMTRYEDIFMLPHTLTLGAGMVTQILDMGYTRIPIYENDRKNIVALLFVKDLALLDPDDNHNVMKIASIYNHEVRRVLVDMPLRNMLEEFKRGEYHMALVERLVEQEDKDPIYELCGLITLEDIIEEIIQCEIIDE
modifications: Assigning the 13 uM binder to CNNM3 is inferred from listing order (Figure 4 not in text)
B2: human CNNM3 CBS-pair domain (domain or fragment)
chain: LRCRTVEDVLTPLEDCFMLDASTVLDFGVLASIMQSGHTRIPVYEEERSNIVDMLYLKDLAFVDPEDCTPLSTITRFYNHPLHFVFNDTKLDAVLEEFKRGKSHLAIVQKVNNEGEGDPFYEVLGLVTLEDVIEEIIRSEILDE
notes: CBS-pair domain of human CNNM3; the ITC methods call all the titrated domains GST-CBS-pairs, the human one included; also called hCNNM3; GST-CBS-pair; source: E. coli BL21(DE3), purified; not shown: GST, N-terminal, kept
B3: Drosophila melanogaster CNNM CBS-pair domain, GST-tagged (domain or fragment, D. melanogaster)
chain: VNIISGALELRKKTVADVMTHINDAFMLSLDALLDFETVSEIMNSGYSRIPVYDGDRKNIVTLLYIKDLAFVDTDDNTPLKTLCEFYQNPVHFVFEDYTLDIMFNQFKEGTIGHIAFVHRVNNEGDGDPFYETVGLVTLEDVIEELIQAEIVDE
notes: CBS-pair domain of the Drosophila CNNM protein encoded by the uex (unextended) gene; also called Drosophila CNNM; dCNNM; source: E. coli BL21(DE3), purified (glutathione-Sepharose, Superdex-75); not shown: GST, N-terminal, kept
B4: Drosophila melanogaster PRL (wild-type) (enzyme, D. melanogaster, UniProt O61722 1-176, looked up)
chain: MSITMRQKDLRPAPALIEYKGMKFLITDRPSDITINHYIMELKKNNVNTVVRVCEPSYNTDELETQGITVKDLAFEDGTFPPQQVVDEWFEVLKDKYQQNPEACVAVHCVAGLGRAPVLVALALIELGLKYEAAVEMIRDKRRGAINAKQLSFLEKYKPKARLKHKNGHKNSCSVQ
notes: the single PRL of D. melanogaster, cloned without the C-terminal prenylation site; also called Drosophila PRL; fly PRL; source: E. coli BL21(DE3), purified (TALON Co2+ resin, Superdex-75)
B5: CBS-pair domain of a C. elegans CNNM protein (the one of two expressed that bound with 1 μM affinity) (domain or fragment)
chain: LKIAVGAMEIADKVVKDVMTKIEDVFMLPDTTVLNAKTVMEIVKMGYTRIPVYQYGDKNNVTDMLFVKDLALLDPDDNFTVKTVCGYHKHPVKFVMNDTPLPNLLEAFKKGEGHLAMVKRLINTDDKHDPSYVLVGVVTLEDIVEEILQAEINDE
modifications: Table S2: only CNNM1 (376-530) and CNNM3 (375-527) gave protein; assigning the 1 uM binder to CNNM1 is inferred from listing order (Figure 4 not in text)

What all share (test): ITC; VP-ITC, 20 °C, 20 mM Hepes pH 7.5, 100 mM NaCl, 5 mM TCEP; GST-CBS-pairs titrated with PRL; single site-binding model
Details in all cases: both partners purified
For orientation: ITC needs no label: the signal is the heat of the interaction.

Test [1] deals with T1, Caenorhabditis elegans PRL (C. elegans).
T1 construct: the single PRL of C. elegans, cloned without the C-terminal prenylation site; also called C. elegans PRL; source: E. coli BL21(DE3), purified (TALON Co2+ resin, Superdex-75)

In the next test the target is T2, human PRL2 (human, UniProt Q12974 1-163).
T2 construct: human phosphatase of regenerating liver 2 (PRL2); also called hPRL2; source: E. coli BL21(DE3), purified (TALON Co2+ resin, Superdex-75)
T2 sequence: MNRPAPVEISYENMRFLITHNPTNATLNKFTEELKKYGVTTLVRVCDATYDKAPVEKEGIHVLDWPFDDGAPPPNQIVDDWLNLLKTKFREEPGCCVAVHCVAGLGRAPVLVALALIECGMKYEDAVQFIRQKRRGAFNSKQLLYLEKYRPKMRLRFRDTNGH

For test [2], the target named is B4.
Test [3] concerns the target B3.

Take B1: binding in test [1] was put at a Kd of 13 µM.

On to B2, for which, in the test with human PRL2, the binding result is recorded as “binds”. For B3, the Kd (commonly the free concentration of one partner at which half of the binding sites on the other are occupied at equilibrium, for simple one-to-one binding) in test [2] was determined as 0.35 µM.

With B4, the “fold weaker affinity than the human complex” value in test [3] was 20 fold.

Regarding B5, in test [1], binding was put at a Kd of 1 µM.
